± gives the uncertainty stated by the source.

The text below walks through data of the Human Domainome abundance scans (Beltran et al. 2025).

The chains are these.
B1: Membrane-associated guanylate kinase, WW and PDZ domain-containing protein 2, residues 601 to 682; numbered along this chain, Q86UL8 (parent)
chain: AELMTLTIVKGAQGFGFTIADSPTGQRVKQILDIQGCPGLCEGDLIVEINQQNVQNLSHTEVVDILKDCPIGSETSLIIHRG

The variants in the series derive from B1. Description: abundance fitness (aPCA) (normalised: wild type 0, dead -1); higher = more abundant; growth selection in yeast, the domain comes from the species named. The conditions noted are these: Homo sapiens.
Q30H: the abundance fitness was -0.062 ± 0.15.

Take Q30M: the abundance fitness was 0.098 ± 0.12.

Turning to Q51L, the abundance fitness is -0.064 ± 0.029.

With K29Q, the abundance fitness was -0.053 ± 0.13.

In the case of K29D, the abundance fitness amounted to 0.108 ± 0.28.

Consider K29C, for which the abundance fitness was -0.091 ± 0.13.

Take L77E: the abundance fitness was -1.12 ± 0.38.

As to I65G, the abundance fitness was -0.295 ± 0.038.

I65V: the abundance fitness amounted to 0.006 ± 0.037.

As for I65N, the abundance fitness is -0.256 ± 0.087.

Consider P70L, for which the abundance fitness was -0.085 ± 0.11.

In the case of V54H, the abundance fitness was -1.18 ± 0.15.

As to C41P, the abundance fitness was -1.02 ± 0.16.

For the variant C41F, the abundance fitness came to 0.016 ± 0.088.

As for C41I, the abundance fitness was determined as 0.057 ± 0.062.

With C41K, the abundance fitness was -0.036 ± 0.056.

For the variant C41Q, the abundance fitness is -0.001 ± 0.061.

Regarding D68K, the abundance fitness amounted to 0.005 ± 0.13.

For D68W, the abundance fitness was -0.166 ± 0.15.

As to D68T, the abundance fitness is -0.153 ± 0.095.

With D68R, the abundance fitness was -0.136 ± 0.068.

Turning to D68G, the abundance fitness was -0.057 ± 0.1.

On to D68Q, for which the abundance fitness stood at 0.07 ± 0.11.

D44Q: the abundance fitness is -0.567 ± 0.16.

With D44S, the abundance fitness was -0.618 ± 0.12.

Regarding D44C, the abundance fitness is -0.989 ± 0.28.

Regarding I8E, the abundance fitness is -0.52 ± 0.058.

As to I8T, the abundance fitness came to 0.042 ± 0.051.

As for G39T, the abundance fitness is -0.017 ± 0.2.

On to G39M, for which the abundance fitness is -0.192 ± 0.16.

As to N56P, the abundance fitness amounted to 0.072 ± 0.1.

Take N56C: the abundance fitness was -0.326 ± 0.22.

For N56W, the abundance fitness came to 0.197 ± 0.28.

With M4S, the abundance fitness is -0.097 ± 0.033.

Consider M4F, for which the abundance fitness turned out to be 0.058 ± 0.054.

For M4G, the abundance fitness is -0.118 ± 0.029.

C37S: the abundance fitness worked out at 0.012 ± 0.18.

Turning to R81V, the abundance fitness is -0.252 ± 0.11.

Turning to R81K, the abundance fitness was -0.21 ± 0.17.

As to Q35A, the abundance fitness was determined as 0.086 ± 0.15.

Q35K: the abundance fitness is -0.278 ± 0.24.

Take Q35T: the abundance fitness amounted to 0.209 ± 0.35.

With Q26E, the abundance fitness was 0.016 ± 0.055.

Take Q26P: the abundance fitness worked out at 0.045 ± 0.088.

As for Q26L, the abundance fitness was -0.028 ± 0.041.

On to Q26A, for which the abundance fitness is 0.063 ± 0.047.

V63K: the abundance fitness was -0.095 ± 0.21.

Turning to G16E, the abundance fitness was -0.059 ± 0.043.

On to G16N, for which the abundance fitness came out at 0.018 ± 0.051.

For the variant G16H, the abundance fitness was -0.044 ± 0.058.

For the variant G16I, the abundance fitness is -0.268 ± 0.052.

Regarding G16L, the abundance fitness was -0.014 ± 0.033.

For Q55E, the abundance fitness is -0.029 ± 0.065.

Consider Q55R, for which the abundance fitness worked out at 0.004 ± 0.052.

Regarding I19T, the abundance fitness was -0.169 ± 0.12.

For I71T, the abundance fitness was -0.038 ± 0.15.

I71H: the abundance fitness is -0.18 ± 0.23.

Turning to I46M, the abundance fitness was found to be 0.164 ± 0.14.

Consider I79C, for which the abundance fitness is -0.115 ± 0.12.

In the case of I79R, the abundance fitness was -0.24 ± 0.064.

Q52N: the abundance fitness was 0.017 ± 0.046.

For the variant Q52L, the abundance fitness is -0.072 ± 0.03.

For Q52T, the abundance fitness is -0.018 ± 0.038.

For V28I, the abundance fitness came out at 0.144 ± 0.23.

For the variant G72D, the abundance fitness was determined as 0.073 ± 0.089.

As for G72H, the abundance fitness was -0.356 ± 0.28.

In the case of G72R, the abundance fitness turned out to be 0.006 ± 0.065.

On to G72Q, for which the abundance fitness stood at 0.003 ± 0.17.

For the variant L6H, the abundance fitness was determined as 0.007 ± 0.073.

Take L6W: the abundance fitness was -0.147 ± 0.043.

On to L6Y, for which the abundance fitness was -0.064 ± 0.078.

On to L6D, for which the abundance fitness is -0.366 ± 0.082.

As to L6Q, the abundance fitness was -0.083 ± 0.053.

In the case of G25F, the abundance fitness was -0.314 ± 0.19.

Consider G25M, for which the abundance fitness is -0.191 ± 0.062.

In the case of S76N, the abundance fitness is -0.003 ± 0.2.

With S76A, the abundance fitness was -0.018 ± 0.074.

Turning to S76R, the abundance fitness was -0.021 ± 0.054.

On to K10V, for which the abundance fitness is -0.073 ± 0.034.

Take K10P: the abundance fitness was -0.146 ± 0.045.

Consider K10H, for which the abundance fitness was -0.14 ± 0.065.

Regarding K10G, the abundance fitness is -0.125 ± 0.032.

For V62R, the abundance fitness was -0.91 ± 0.14.

As for V62H, the abundance fitness was -0.598 ± 0.35.

Consider C69S, for which the abundance fitness came to 0.177 ± 0.18.

Consider C69L, for which the abundance fitness is -0.064 ± 0.11.

C69M: the abundance fitness was -0.102 ± 0.12.

In the case of E61G, the abundance fitness was -0.036 ± 0.065.

As to E61R, the abundance fitness worked out at 0.002 ± 0.1.

Regarding G11R, the abundance fitness is -0.094 ± 0.038.

Take G11D: the abundance fitness was found to be 0.01 ± 0.061.

T60C: the abundance fitness was 0.17 ± 0.15.

Turning to T60S, the abundance fitness is -0.032 ± 0.093.

Regarding T60L, the abundance fitness was -0.011 ± 0.071.

For the variant T60A, the abundance fitness was 0.146 ± 0.081.

Consider A1C, for which the abundance fitness was -0.015 ± 0.32.

In the case of G82V, the abundance fitness is -0.188 ± 0.16.

With T75L, the abundance fitness was -0.045 ± 0.072.

Regarding T75M, the abundance fitness stood at 0.047 ± 0.11.

Turning to T75N, the abundance fitness was -0.115 ± 0.19.

In the case of F17H, the abundance fitness was -0.881 ± 0.16.

Turning to F17Q, the abundance fitness was -1.07 ± 0.23.

On to F17T, for which the abundance fitness is -1.2 ± 0.13.

As to F17L, the abundance fitness was -0.124 ± 0.032.

As for F17W, the abundance fitness is -0.022 ± 0.039.

As to F17M, the abundance fitness is -0.105 ± 0.044.

I49W: the abundance fitness was -0.241 ± 0.093.

For the variant V47Y, the abundance fitness is -0.337 ± 0.18.

Regarding V47N, the abundance fitness is -0.291 ± 0.39.

Take V47C: the abundance fitness is -0.066 ± 0.09.

As to G43W, the abundance fitness was -0.206 ± 0.099.

For the variant G43K, the abundance fitness was found to be 0.199 ± 0.36.

For G43L, the abundance fitness is 0 ± 0.11.

Take P23I: the abundance fitness is -0.17 ± 0.097.

Regarding P23W, the abundance fitness was -0.03 ± 0.053.

As to H59D, the abundance fitness is -0.176 ± 0.093.

For the variant T18S, the abundance fitness was -0.013 ± 0.038.

As to T18N, the abundance fitness worked out at 0.001 ± 0.086.

On to T18L, for which the abundance fitness turned out to be 0.01 ± 0.038.

As for N53S, the abundance fitness is -0.022 ± 0.033.

Turning to I34W, the abundance fitness is -0.101 ± 0.063.

As to I34V, the abundance fitness worked out at 0.017 ± 0.059.

On to I34G, for which the abundance fitness was -0.021 ± 0.05.

Regarding S58G, the abundance fitness was 0.015 ± 0.1.

With S58C, the abundance fitness was determined as 0.052 ± 0.11.

As to S58V, the abundance fitness was -0.093 ± 0.079.

In the case of S58D, the abundance fitness is -0.183 ± 0.17.

V9P: the abundance fitness is -0.135 ± 0.06.

In the case of V9Y, the abundance fitness is -0.039 ± 0.075.

On to D33M, for which the abundance fitness is -0.124 ± 0.06.

With D33R, the abundance fitness is -0.061 ± 0.041.

For the variant L66G, the abundance fitness is -0.673 ± 0.28.

Take L66W: the abundance fitness was -0.521 ± 0.12.

As to S73T, the abundance fitness was -0.095 ± 0.12.

As to S73L, the abundance fitness is -0.102 ± 0.14.

In the case of S73K, the abundance fitness is -0.044 ± 0.092.

On to F15L, for which the abundance fitness worked out at 0.004 ± 0.03.

Regarding F15M, the abundance fitness was found to be 0.039 ± 0.044.

With L32T, the abundance fitness was -0.023 ± 0.12.

Regarding L32Y, the abundance fitness was -0.16 ± 0.3.

T5H: the abundance fitness is -0.139 ± 0.067.

Regarding T5M, the abundance fitness was 0.029 ± 0.068.

On to T5K, for which the abundance fitness was -0.024 ± 0.057.

In the case of T5F, the abundance fitness was -0.217 ± 0.097.

Turning to A12C, the abundance fitness is -0.044 ± 0.056.

For A12W, the abundance fitness is -0.057 ± 0.052.

As to E42F, the abundance fitness was -0.123 ± 0.1.

For the variant E42P, the abundance fitness came out at 0.061 ± 0.075.

Consider E74A, for which the abundance fitness was -0.185 ± 0.088.

With E74Q, the abundance fitness is -0.074 ± 0.16.

Take E74G: the abundance fitness was -0.153 ± 0.1.

For the variant E74D, the abundance fitness came to 0.137 ± 0.15.

Consider E74M, for which the abundance fitness worked out at 0.062 ± 0.15.

With E74S, the abundance fitness is -0.16 ± 0.1.

With Q13D, the abundance fitness is -0.062 ± 0.047.

Q13F: the abundance fitness is -0.084 ± 0.043.

Consider Q13M, for which the abundance fitness was -0.104 ± 0.04.

In the case of P38R, the abundance fitness was -0.13 ± 0.098.

For the variant D21S, the abundance fitness is -0.054 ± 0.083.

On to D21F, for which the abundance fitness is -0.208 ± 0.33.

Regarding D21L, the abundance fitness amounted to 0.084 ± 0.11.

For D21M, the abundance fitness came out at 0.079 ± 0.24.

For the variant D21E, the abundance fitness was -0.023 ± 0.12.

Turning to G14F, the abundance fitness was -0.21 ± 0.042.

G14R: the abundance fitness is -0.093 ± 0.033.

As to L3M, the abundance fitness amounted to 0.029 ± 0.041.

Take H80T: the abundance fitness worked out at 0.028 ± 0.079.
